Sequences and labels used below:
B1: TPR 5TU (parent)
chain: GGAUCUUCUCGAUCUAACAAAAAAGACAAAUCUGCCACAAAGCUUGAGAGCAUCUUCGGAUGCAGAGGCGGCAGCCUUCGGUGGCGCGAUAGCGCCAACGUUCUCAACUAUGACACGCAAAACGCGUGCUCCGUUGAAUGGAGUUUAUCAUG

Fewer inactive variants are shown than the library holds.

This data set covers variants of B1. Briefly: polymerase ribozyme fitness, log enrichment relative to wild type (log ratio); higher = more active; in vitro selection for triplet polymerase activity. In outline: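 For each subunit of a heterodimeric triplet polymerase ribozyme, a mutant library was built by PCR and transcribed, then taken through a single in vitro selection round in triplicate. Selection involved annealing to a biotinylated primer, the partner subunit and triplets, incubation frozen at −7 °C, gel excision of extended constructs, capture on streptavidin beads and RT-PCR. Genotypes were retained after Illumina sequencing of inputs and outputs only with ≥10 input reads and ≥1 read in each output. Fitness is defined as the logarithm of a genotype's enrichment relative to wild-type enrichment, using inverse-variance-weighted averages across replicates, with the logarithm taken to base 2.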
With C54U C57U G83C, the “polymerase ribozyme fitness (log ratio)” value was -1.34. The figure for C54U C75G U78C C79A G80U is ≤ -4.2. The result for C54G C85U C96G G112C U130A A142G C149A reads ≤ -4.2.

In the case of C54U C96U U144G, the “polymerase ribozyme fitness (log ratio)” value stood at 0.217. The figure for C54U G58A is 0.498; for C54U G58C it is -0.858. The figure for C54U C93G is -3.72. The result for C54U C93U reads -1.99; that for C54U A91U U102G, ≤ -4.2; that for C54U C87U, -1.08. For the variant C54U C87G, the “polymerase ribozyme fitness (log ratio)” value was ≤ -4.2. The result for C54U C57G C87A G128A reads ≤ -4.2. The result for C54G U55A G94A C132U reads ≤ -4.2.

Turning to C54G G84U, the “polymerase ribozyme fitness (log ratio)” value was -1.6. On to C54U G71U C85A C96G G133C U145G G152A, for which the “polymerase ribozyme fitness (log ratio)” value was ≤ -4.2. The figure for C54U C87U A115U is -1.85. The result for C54U C57U C79A C85U C93G A107G C123G reads ≤ -4.2; that for C54G C57U C75A A97U G141C U145G, ≤ -4.2.

As for C54G C95U, the “polymerase ribozyme fitness (log ratio)” value is -2.35. The figure for C54G C95A is -1.74.

Turning to C54G G83U C108U A115G G143A, the “polymerase ribozyme fitness (log ratio)” value is ≤ -4.2.

C54G U61C G84U C87U G88A A119U: the “polymerase ribozyme fitness (log ratio)” value was ≤ -4.2. In the case of C54G C103A G140C, the “polymerase ribozyme fitness (log ratio)” value was ≤ -4.2. The figure for C54G G140A U146A is ≤ -4.2; for C54G G83C A97U A98U it is -2.8. Regarding C54U C114A A137U, the “polymerase ribozyme fitness (log ratio)” value was -3.59. The figure for C54U A110C C114U A121U is -4.15; for C54U G84C C93U U144C it is ≤ -4.2.

C54G U55G: the “polymerase ribozyme fitness (log ratio)” value was ≤ -4.2. The figure for C54U G58A G92A U145A is -3.35. The figure for C54U C85U C129U is -0.134; for C54G U101G C118U it is -2.4; for C54U G84A A110U it is ≤ -4.2. The result for C54U C96U C118U reads -0.868. C54U A60G C95U: the “polymerase ribozyme fitness (log ratio)” value was -0.803. The result for C54G G68C G80A G94U A98G reads ≤ -4.2; that for C54G U56A C96G U102C G136A U144G, -3.08; that for C54G U56A C57A G81U C93U, -0.912. The figure for C54U G92C is -1.07; for C54U C76U C85G it is -1.18; for C54U C99U it is -0.322.

C54G C76A A89C A98U A115U U151A: the “polymerase ribozyme fitness (log ratio)” value was ≤ -4.2. As for C54G G80U, the “polymerase ribozyme fitness (log ratio)” value is -3.52. The result for C54U G80A reads -0.56; that for C54U G67U G86U C95A, ≤ -4.2; that for C54G U55A G94U A98C U146G, -3.37.

Consider C54G U55A C108G A122U, for which the “polymerase ribozyme fitness (log ratio)” value was ≤ -4.2.

Turning to C54U C95G, the “polymerase ribozyme fitness (log ratio)” value was -1.07. The figure for C54U C95U is -0.851. On to C54U G86U C93A A97U A120G, for which the “polymerase ribozyme fitness (log ratio)” value is -1.29. The figure for C54G U109C C116U C131U A147U is -1.86; for C54U C149U it is -0.259; for C54G C96U C123G it is -1.53.

With C54G C85U C99G, the “polymerase ribozyme fitness (log ratio)” value is -3.45.

For C54G C87A, the “polymerase ribozyme fitness (log ratio)” value was ≤ -4.2. Consider C54G C87U, for which the “polymerase ribozyme fitness (log ratio)” value is -3.59. The result for C54U G81U G83U G152U reads -4.17; that for C54U C57G G84U C96A, -3.23. The result for C54G C114U G143C reads -4.16; that for C54G C96U A98G, -1.19. As for C54G G80C G81A C85U C129A U135C, the “polymerase ribozyme fitness (log ratio)” value was ≤ -4.2. The result for C54G C95U U127G reads ≤ -4.2; that for C54G G74C G81A G88C, ≤ -4.2; that for C54G C116U, -1.08. In the case of C54U C87G C93U C125A G133A A142C, the “polymerase ribozyme fitness (log ratio)” value is ≤ -4.2. As for C54U G88C, the “polymerase ribozyme fitness (log ratio)” value is ≤ -4.2. The result for C54U G58C C85A reads -2.42; that for C54U A60U C87U G94U U101G U109C C116U C118U G152C, ≤ -4.2; that for C54U C85A C96U A97C A98G A121U, ≤ -4.2. The figure for C54U is -0.314.

Regarding C54U C57A, the “polymerase ribozyme fitness (log ratio)” value is -0.253.

As to C54U G59C A60G A122U, the “polymerase ribozyme fitness (log ratio)” value came to 0.186.

As to C54G U55A A89U C118G A142C, the “polymerase ribozyme fitness (log ratio)” value was -3.87. The result for C54U C85G reads -2.49; that for C54U C85A, -2.3; that for C54U C96A C105G G124U, -3.42. The result for C54U C95G A98G reads -2.01; that for C54U A107U U111G U135A U146C, -4; that for C54G C95G G133A, ≤ -4.2.

Take C54U C85U C95A: the “polymerase ribozyme fitness (log ratio)” value is -1.84. C54U G65A C85U A89G U146G: the “polymerase ribozyme fitness (log ratio)” value is -4.13. On to C54G G58C A122G G124U, for which the “polymerase ribozyme fitness (log ratio)” value was -2.2. The result for C54G U102C U144A reads -3.91. The result for C54U G65U G81A C93U A97U reads ≤ -4.2; that for C54U C76A, -0.561; that for C54U C105A C131G, ≤ -4.2. The result for C54U C69A U144C reads -3.89; that for C54G U82A, -1.98. C54G U82G: the “polymerase ribozyme fitness (log ratio)” value was -0.687.

On to C54U G84A U102G, for which the “polymerase ribozyme fitness (log ratio)” value is -4.14. The result for C54U A121U reads 0.0158; that for C54U C72U, -0.468. The result for C54U C125G reads -1.05.

As to C54G C87G C103A C129G C132U, the “polymerase ribozyme fitness (log ratio)” value is ≤ -4.2. The figure for C54U C95A G126U U148A is ≤ -4.2; for C54G G94U C123U G133C it is -2.38; for C54U A91C it is ≤ -4.2. The result for C54U A91U reads ≤ -4.2; that for C54U C96A C105U, 0.0167; that for C54U G83U C85A U90G, ≤ -4.2. The figure for C54U G84A C105A is -0.565. As to C54U G59U G74A, the “polymerase ribozyme fitness (log ratio)” value is -3.62. The result for C54U G81A C95U reads -0.559; that for C54G G65U A73U C87A A106U G140A G143A, ≤ -4.2. As for C54G C87U A106U A137U G140U A142C, the “polymerase ribozyme fitness (log ratio)” value is ≤ -4.2. The figure for C54U G124C is -0.768. The figure for C54U A91G G128U C131U is -3.53; for C54G C75U C95U A147C it is -3.31; for C54U C63A C149U it is -1.67. The figure for C54U C75G G80C U82A C87U C99G is ≤ -4.2; for C54G C76G A89U C93A A113G C116U it is ≤ -4.2; for C54G U55A G70U G81C C87U G94C C96A C105A A120C it is ≤ -4.2. As to C54G G86A A120U, the “polymerase ribozyme fitness (log ratio)” value is -2.8.

Turning to C54U C63G G67C G143A, the “polymerase ribozyme fitness (log ratio)” value was ≤ -4.2. As to C54U C75G G81C U127A, the “polymerase ribozyme fitness (log ratio)” value was ≤ -4.2.

In the case of C54G G67A U77C C87A C99U U130G, the “polymerase ribozyme fitness (log ratio)” value is ≤ -4.2. The figure for C54U G94C G124A is -1.04. The figure for C54U C57G G84U C85U C132U is -3.94.

As for C54U C76U C93G A150G, the “polymerase ribozyme fitness (log ratio)” value is -4.08. The figure for C54U C85G C87G is ≤ -4.2; for C54U G70A G83A U90A G143U it is ≤ -4.2. The figure for C54U G86A is -1.18; for C54U G86U it is -1.78.

With C54U G65U A73U A91U C108G, the “polymerase ribozyme fitness (log ratio)” value is ≤ -4.2. The result for C54U A73G reads -0.166; that for C54U A115G, -3.13. The figure for C54U G88A A89U C95A C99U U146G U151A is ≤ -4.2; for C54U C57A C75U A91G it is -3.62; for C54U A89G C95A U148G it is -4.18. Turning to C54U G94A, the “polymerase ribozyme fitness (log ratio)” value was -0.351. The result for C54U G94C reads -1.15; that for C54G G65A C79U C85G A91U G136C, ≤ -4.2; that for C54U G84A A97U, -1.27.

On to C54U G59C A97U, for which the “polymerase ribozyme fitness (log ratio)” value is -0.658. The result for C54G C79U G94C C96U A150G reads ≤ -4.2.

For the variant C54G G80U C103A, the “polymerase ribozyme fitness (log ratio)” value was ≤ -4.2. The figure for C54G G92C A106G is -2.99. The figure for C54U A64U G83A C85A is ≤ -4.2; for C54U C93U U144C U146G it is -3.87; for C54G C96G G126A it is -2.33. The figure for C54G C57A G74A A91C C95U C132A is ≤ -4.2; for C54G G59U U135C A138U it is ≤ -4.2; for C54G A142U it is -1.98. On to C54U A106G, for which the “polymerase ribozyme fitness (log ratio)” value was -0.0717. Take C54U C79U G92U C95U G141C: the “polymerase ribozyme fitness (log ratio)” value was -3.77.

Consider C54U G84A U146G, for which the “polymerase ribozyme fitness (log ratio)” value is -1.56. The figure for C54U C87U G92C is -0.365; for C54U C99G U101G A142U it is -3.57. As for C54U A64G G68A U77C G83A G88U U90G C132U U139G, the “polymerase ribozyme fitness (log ratio)” value was ≤ -4.2. In the case of C54U C93G U145A, the “polymerase ribozyme fitness (log ratio)” value is ≤ -4.2. With C54U G74C, the “polymerase ribozyme fitness (log ratio)” value was -3.95.

In the case of C54G C103G, the “polymerase ribozyme fitness (log ratio)” value is ≤ -4.2. Take C54U A150G: the “polymerase ribozyme fitness (log ratio)” value was -0.995.

Consider C54U C87G A142C, for which the “polymerase ribozyme fitness (log ratio)” value was ≤ -4.2. Regarding C54U A138G, the “polymerase ribozyme fitness (log ratio)” value was -3.19. The figure for C54G C85A is -3.85; for C54U A64C U90G U139G G140A it is ≤ -4.2. The figure for C54U A97C is -0.294; for C54U C87U C99U U135C it is -3.26. The figure for C54G C96U is -1.33. In the case of C54G C96A, the “polymerase ribozyme fitness (log ratio)” value was -2.41. The figure for C54U G84C G100C C108A A113U G141U is ≤ -4.2; for C54U G59U it is 0.271. The result for C54G C72U U82A U90G G141C reads ≤ -4.2; that for C54U C93U C96G U135A, -3.57.

C54G G94A C108A C125U: the “polymerase ribozyme fitness (log ratio)” value was ≤ -4.2. The result for C54U G68C C69G G71U G140A U144G reads ≤ -4.2.

Source of the values: the RNAGym collection of RNA variant scans (doi:10.1073/pnas.2313332121).
